Where a SMILES comes first, the peptide text is derived from it. Bridges are numbered along the chain shown (N, C = ends). [ ]: non-standard residue; d: D form. The star is where a group is joined. dPhe(4-NHCONH2) = NC(=O)Nc1ccc(C[C@@H](N)C(=O)O)cc1; Dihydroorotyl(S) = O=C1C[C@@H](C(=O)*)NC(=O)N1; Phe(4-Cl) = N[C@@H](Cc1ccc(Cl)cc1)C(=O)O; Phe(4-NH2) = Nc1ccc(C[C@H](N)C(=O)O)cc1; HYNIC = NNc1ccc(C(=O)*)cn1; Ahx = NCCCCCC(=O)O
How the values were obtained:
[1] = format: physicochemical
Experimental: In general, all JR11-based radiotracers were more hydrophilic than the corresponding SS01-based radiotracers. […] [^99[…] was excluded from further studies. […] In a pre-lubricated Eppendorf tube, a pre-saturated mixture of 500 μL 1-octanol and 500 μL of phosphate-buffered saline (PBS) at pH 7.4 was added. An amount of 10 μL of 1 μM radiotracer solution was added to this mixture, followed by vortexing of the tube at room temperature for 15 min to reach equilibrium. Centrifugation for 15 min at 3000 rpm was performed for separation of the phases. Aliquots of 100 μL were removed from the octanol and from the PBS phase, and the activity measured in a γ-counter. The partition coefficient was calculated as the average log ratio value of the radioactivity in the organic fraction and PBS fraction.

[2] = system: HEK-SST2 tumors; set-up: species or system mice; conditions: mouse, in vivo
Experimental: The Veterinary Office (Department of Health) of the Cantonal Basel-Stadt approved the animal experiments (approval no. 30515) in accordance with the Swiss regulations for animal treatment. Female athymic nude-Foxn1nu/Foxn1+ mice (Envigo, The Netherlands), 4-6 weeks old, were injected subcutaneously with 10^7 HEK-SST2 cells in the right shoulder, freshly suspended in 100 μL sterile phosphate-buffered saline. The tumors were allowed to grow for 2-3 weeks. Mice bearing HEK-SST2 tumors were euthanized 1 or 4 h after intravenous injection of 4-6 MBq (200 pmol) of the ^99mTc-labeled conjugates and imaged supine, head first, using a SPECT/CT system dedicated to imaging small animals (NanoSPECT/CT^TM Bioscan Inc.). Topograms and helical CT scans of the whole mouse were first acquired using the following parameters: X-ray tube current: 177 μA, X-ray tube voltage 45 kVp, 90 s and 180 frames per rotation, pitch 1. The helical SPECT scan was then acquired from head to toe using multi-purpose pinhole collimators (APT1). The energy window width was 20%, centered symmetrically over the energy peak of ^99mTc at 140 keV. Twenty-four projections (200 s per projection) were used, allowing acquisition of at least 50 kilocounts/projection. […]

[3] = system: SST2; conditions: cited from earlier work

Molecule	Log D (pH = 7.4) [1]	other results
C[C@@H](O)[C@@H]1NC(=O)[C@H](CCCCN)NC(=O)[C@@H](Cc2ccc(NC(N)=O)cc2)NC(=O)[C@H](Cc2ccc(NC(=O)[C@@H]3CC(=O)NC(=O)N3)cc2)NC(=O)[C@H](NC(=O)[C@H](Cc2ccc(Cl)cc2)NC(=O)CCCCCNC(=O)c2ccc(NN)nc2)CSSC[C@@H](C(=O)N[C@H](Cc2ccc(O)cc2)C(N)=O)NC1=O [[^99mTc]Tc-HYNIC-Ahx-JR11, metal not drawn] ({HYNIC-Ahx}-[Phe(4-Cl)][dC][Phe(4-NH2)](Dihydroorotyl(S))[dPhe(4-NHCONH2)]KTC[dY]-NH2; disulfide 2-7)	−3.15 ± 0.06	
C[C@@H](O)[C@@H]1NC(=O)[C@H](CCCCN)NC(=O)[C@@H](Cc2c[nH]c3ccccc23)NC(=O)[C@H](Cc2ccc(O)cc2)NC(=O)[C@H](NC(=O)[C@H](Cc2ccc(Cl)cc2)NC(=O)CCCCCNC(=O)c2ccc(NN)nc2)CSSC[C@@H](C(=O)N[C@H](Cc2ccc(O)cc2)C(N)=O)NC1=O [[^99mTc]Tc-HYNIC-Ahx-SS01, metal not drawn]	−1.96 ± 0.06	
C[C@@H](O)[C@@H]1NC(=O)[C@H](CCCCN)NC(=O)[C@@H](Cc2ccc(NC(N)=O)cc2)NC(=O)[C@H](Cc2ccc(NC(=O)[C@@H]3CC(=O)NC(=O)N3)cc2)NC(=O)[C@H](NC(=O)[C@H](Cc2ccc(Cl)cc2)NC(=O)c2ccc(NN)nc2)CSSC[C@@H](C(=O)N[C@H](Cc2ccc(O)cc2)C(N)=O)NC1=O [[^99mTc]Tc-HYNIC-JR11, metal not drawn] ({HYNIC}-[Phe(4-Cl)][dC][Phe(4-NH2)](Dihydroorotyl(S))[dPhe(4-NHCONH2)]KTC[dY]-NH2; disulfide 2-7)	−2.88 ± 0.11	
C[C@@H](O)[C@@H]1NC(=O)[C@H](CCCCN)NC(=O)[C@@H](Cc2c[nH]c3ccccc23)NC(=O)[C@H](Cc2ccc(O)cc2)NC(=O)[C@H](NC(=O)[C@H](Cc2ccc(Cl)cc2)NC(=O)CCOCCOCCOCCOCCNC(=O)c2ccc(NN)nc2)CSSC[C@@H](C(=O)N[C@H](Cc2ccc(O)cc2)C(N)=O)NC1=O [[^99mTc]Tc-HYNIC-PEG4-SS01, metal not drawn]	−2.03 ± 0.13	
C[C@@H](O)[C@@H]1NC(=O)[C@H](CCCCN)NC(=O)[C@@H](Cc2c[nH]c3ccccc23)NC(=O)[C@H](Cc2ccc(O)cc2)NC(=O)[C@H](NC(=O)[C@H](Cc2ccc(Cl)cc2)NC(=O)c2ccc(NN)nc2)CSSC[C@@H](C(=O)N[C@H](Cc2ccc(O)cc2)C(N)=O)NC1=O [[^99mTc]Tc-HYNIC-SS01, metal not drawn]	−2.21 ± 0.07	
C[C@@H](O)[C@@H]1NC(=O)[C@H](CCCCN)NC(=O)[C@@H](Cc2c[nH]c3ccccc23)NC(=O)[C@H](Cc2ccc(O)cc2)NC(=O)[C@@H](NC(=O)[C@@H](Cc2ccccc2)NC(=O)c2ccc(NN)nc2)CSSC[C@@H](C(=O)N[C@H](CO)[C@@H](C)O)NC1=O [[^99mTc]Tc-HYNIC-TOC, metal not drawn, reference compound]		logD ([1]; pH 7.4): -2.77 ± 0.07
C[C@@H](O)[C@@H]1NC(=O)[C@H](CCCCN)NC(=O)[C@@H](Cc2c[nH]c3ccccc23)NC(=O)[C@H](Cc2ccc(O)cc2)NC(=O)[C@H](NC(=O)[C@H](Cc2ccc(Cl)cc2)NC(=O)CCNC(=O)c2ccc(NN)nc2)CSSC[C@@H](C(=O)N[C@H](Cc2ccc(O)cc2)C(N)=O)NC1=O [[^99mTc]Tc-HYNIC-β-Ala-SS01, metal not drawn]	−1.91 ± 0.19	washout from the tumor on SPECT/CT images (in words) [2]: very fast washout from the tumor
Cpa-c(DCys-Aph(Hor)-DAph(Cbm)-Lys-Thr-Cys)-DTyr-NH2 [JR11]		affinity for SST2 (in words) [3]: high affinity

Source: PMC8065591, “SPECT Imaging of SST2-Expressing Tumors with ^99mTc-Based Somatostatin Receptor Antagonists: The Role of Tetraamine, HYNIC, and Spacers” (Pharmaceuticals, 2021)
